Measurements published in patent publication CN108299557A (HANGZHOU HANSI BIOMEDICAL CO LTD, dated 2018).

What was measured:
PD-1-his抗原 = biological target: T1, PD-1-his抗原 (UniProt Q15116 25-167, limits assumed); assay: binding ELISA, PD-1-his coated, HRP anti-human IgG
T1 construct: not shown: his tag

PD-1-hIgGFc抗原 [1] = biological target: T2, PD-1-hIgGFc抗原 (UniProt Q15116 25-167, limits assumed); assay: competition ELISA, PD-1-hIgGFc coated, competitor PDL2-his tag 1.0 ug/ml, HRP anti-his tag
T2 construct: not shown: human IgG Fc

PD-1-hIgGFc抗原 [2] = biological target: T2, PD-1-hIgGFc抗原; assay: competition ELISA, PD-1-hIgGFc coated, competitor PDL1-mIgG2aFc 0.6 ug/ml, HRP anti-mouse IgG

T2 sequence (Q15116 25-167 limits assumed): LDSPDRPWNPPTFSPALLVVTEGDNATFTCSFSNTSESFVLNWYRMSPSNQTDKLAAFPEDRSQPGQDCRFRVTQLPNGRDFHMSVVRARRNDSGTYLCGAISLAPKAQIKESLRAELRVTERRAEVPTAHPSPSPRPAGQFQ
T1 sequence (Q15116 25-167 limits assumed): as above

EC50 (PD-1-his抗原): 0.04 nM
EC50 (PD-1-hIgGFc抗原 [1]): 1.83 nM
EC50 (PD-1-hIgGFc抗原 [2]): 0.474 nM
B1: 人源化抗体H8L2 (抗PD-1的IgG类抗体变体) (antibody)
heavy: EVQLVQSGGGLVQPGGSLKLSCAASGFTFSSYGMSWVRQAPGKGLDWVATISGGGRDTYYPDSVKGRFTISRDNSKNNLYLQMNSLRAEDTALYYCARQKGEAWFAYWGQGTLVTVSSASTKGPSVFPLAPCSRSTSESTAALGCLVKDYFPEPVTVSWNSGALTSGVHTFPAVLQSSGLYSLSSVVTVPSSSLGTKTYTCNVDHKPSNTKVDKRVESKYGPPCPPCPAPEFLGGPSVFLFPPKPKDTLMITRTPEVTCVVVDVSQEDPEVQFNWYVDGVEVHNAKTKPREEQFNSTYRVVSVLTPLHQDWLNGKEYKCKVSNKGLPSSIEKTISKAKGQPREPQVYTLPPSQEEMTKNQVSLTCLVKGFYPSDIAVEWESNGQPENNYKTTPPVLDSDGSFFLYSRLTVDKSRWQEGNVFSCSVMHEALHAHYTQKSLSLSLGK
light: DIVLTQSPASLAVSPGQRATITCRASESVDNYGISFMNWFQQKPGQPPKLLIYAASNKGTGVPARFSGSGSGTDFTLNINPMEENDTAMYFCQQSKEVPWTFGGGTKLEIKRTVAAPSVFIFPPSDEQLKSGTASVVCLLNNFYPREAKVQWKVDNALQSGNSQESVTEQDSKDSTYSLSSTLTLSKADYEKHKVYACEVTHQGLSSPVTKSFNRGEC
notes: ACC CCC CTG; CAC GCC CAC) confirms; The constant region looks like IgG4; also called 18A10 H8L2; H8L2突变体
